Test results: US12269859B2, “Synthetic immune receptors and methods of use thereof” (Angeles Therapeutics, Inc., priority 2016, dated 2025)

B1: 092515-Y08 (protein)
chain: MALPVTALLLPLALLLHAARPDEIVLTQSPATLSLSPGERATLSCSASSSVSYMHWYQQKPGQAPRLLIYDTSKLASGIPARFSGSGSGTDFTLTISSLEPEDVAVYYCFQGSVYPFTFGQGTKLEIKRGGGGSGGGGSGGGGSQVQLQESGPGLVKPSQTLSLTCTVSGGSISTSGMGVGWIRQHPGKGLEWIGHIWWDDDKRYNPALKSRVTISVDTSKNQFSLKLSSVTAADTAVYYCARMELWSYYFDYWGQGTLVTVSSLESWKDASGWSCTDPQPLKEQPALNDSRYCLSSRLRVSATFWQNPRNHFRCQVQFYGLSENDEWTQDRAKPVTQIVSAEAWGRADCGFTSESYQQGVLSATILYEILLGKATLYAVLVSALVLMAMVKRKDSRGRAKRSGSGATNFSLLKQAGDVEENPGPTSMALPVTALLLPLALLLHAARPDIQMTQTTSSLSASLGDRVTISCRASQDISKYLNWYQQKPDGTVKLLIYHTSRLHSGVPSRFSGSGSGTDYSLTISNLEQEDIATYFCQQGNTLPYTFGGGTKLEITTREQKLISEEDLSSCDVKLVEKSFETDTNLNFQNLSVIGFRILLLKVAGFNLLMTLRLWSSSSRAKRSGSGVKQTLNFDLLKLAGDVESNPGPSRGHMTEYKPTVRLATRDDVPRAVRTLAAAFADYPATRHTVDPDRHIERVTELQELFLTRVGLDIGKVWVADDGAAVAVWTTPESVEAGAVFAEIGPRMAELSGSRLAAQQQMEGLLAPHRPKEPAWFLATVGVSPDHQGKGLGSAVVLPGVEAAERAGVPAFLETSAPRNLPFYERLGFTVTADVEVPEGPRTWCMTRKPGA
modifications: Synthetic Immune Receptor (SIR)
B2: 052316-J03 (protein)
chain: MALPVTALLLPLALLLHAARPDEIVLTQSPATLSLSPGERATLSCSASSSVSYMHWYQQKPGQAPRLLIYDTSKLASGIPARFSGSGSGTDFTLTISSLEPEDVAVYYCFQGSVYPFTFGQGTKLEIKRGGGGSGGGGSGGGGSQVQLQESGPGLVKPSQTLSLTCTVSGGSISTSGMGVGWIRQHPGKGLEWIGHIWWDDDKRYNPALKSRVTISVDTSKNQFSLKLSSVTAADTAVYYCARMELWSYYFDYWGQGTLVTVSSTREQKLISEEDGSGIQNPDPAVYQLRDSKSSDKSVCLFTDFDSQTNVSQSKDSDVYITDKTVLDMRSMDFKSNSAVAWSNKSDFACANAFNNSIIPEDTFFPSPESSCDVKLVEKSFETDTNLNFQNLSVIGFRILLLKVAGFNLLMTLRLWSSRAKRSGSGVKQTLNFDLLKLAGDVESNPGPSRGHMTEYKPTVRLATRDDVPRAVRTLAAAFADYPATRHTVDPDRHIERVTELQELFLTRVGLDIGKVWVADDGAAVAVWTTPESVEAGAVFAEIGPRMAELSGSRLAAQQQMEGLLAPHRPKEPAWFLATVGVSPDHQGKGLGSAVVLPGVEAAERAGVPAFLETSAPRNLPFYERLGFTVTADVEVPEGPRTWCMTRKPGA
modifications: Synthetic Immune Receptor (SIR)
B3: 060816-H05 (protein)
chain: MALPVTALLLPLALLLHAARPDEIVLTQSPATLSLSPGERATLSCSASSSVSYMHWYQQKPGQAPRLLIYDTSKLASGIPARFSGSGSGTDFTLTISSLEPEDVAVYYCFQGSVYPFTFGQGTKLEIKRGGGGSGGGGSGGGGSQVQLQESGPGLVKPSQTLSLTCTVSGGSISTSGMGVGWIRQHPGKGLEWIGHIWWDDDKRYNPALKSRVTISVDTSKNQFSLKLSSVTAADTAVYYCARMELWSYYFDYWGQGTLVTVSSTREQKLISEEDGSGTPFPSLAPPIMLLVDGKQQMVVVCLVLDVAPPGLDSPIWFSAGNGSALDAFTYGPSPATDGTWTNLAHLSLPSEELASWEPLVCHTGPGAEGHSRSTQPMHLSGEASTARTCPQEPLRGTPGGALWLGVLRLLLFKLLLFDLLLTCSCLCDPAGPLPSPATTTRLRALGSHRLHPATETGGREATSSPRPQPRDRRWGDTPPGRKPGSPVRAKRSGSGVKQTLNFDLLKLAGDVESNPGPSRGHMTEYKPTVRLATRDDVPRAVRTLAAAFADYPATRHTVDPDRHIERVTELQELFLTRVGLDIGKVWVADDGAAVAVWTTPESVEAGAVFAEIGPRMAELSGSRLAAQQQMEGLLAPHRPKEPAWFLATVGVSPDHQGKGLGSAVVLPGVEAAERAGVPAFLETSAPRNLPFYERLGFTVTADVEVPEGPRTWCMTRKPGA
modifications: Synthetic Immune Receptor (SIR)
B4: 102616-D06 (protein)
chain: MALPVTALLLPLALLLHAARPDVQMIQTPDSLAVSLGQRATISCRASESVDNYGISFMHWYQQKPGQSPKLLIYRASNLESGIPARFSGSGSRTDFTLTINPVETDDVATYYCQQNNKDPPTFGGGTKLEIKLEGKPIPNPLLGLDSTGSGEDLKNVFPPEVAVFEPSKAEIAHTQKATLVCLATGFYPDHVELSWWVNGKEVHSGVCTDPQPLKEQPALNDSRYCLSSRLRVSATFWQNPRNHFRCQVQFYGLSENDEWTQDRAKPVTQIVSAEAWGRADCGITSASYHQGVLSATILYEILLGKATLYAVLVSALVLMAMVKRKDSRGRAKRSGSGATNFSLLKQAGDVEENPGPTSMDWIWRILFLVGAATGAHSFEGGGGSQVQLQQSGAELVKPGASVKISCKASGYAFSSYWMNWVKQRPGKGLEWIGQIYPGDGDTTYNGKFKGKATLTADKSSSTVYMQLNSLTSEDSAVYFCVRYYYGSSGYFDYWGQGTTLTVSSTREQKLISEEDGSGIQNPDPAVYQLRDSKSSDKSVCLFTDFDSQTNVSQSKDSDVYITDKCVLDMRSMDFKSNSAVAWSNKSDFACANAFNNSIIPEDTFFPSSDVPCDVKLVEKSFETDTNLNFQNLSVIGFRILLLKVAGFNLLMTLRLWSSRAKRSGSGVKQTLNFDLLKLAGDVESNPGPSRGHMTEYKPTVRLATRDDVPRAVRTLAAAFADYPATRHTVDPDRHIERVTELQELFLTRVGLDIGKVWVADDGAAVAVWTTPESVEAGAVFAEIGPRMAELSGSRLAAQQQMEGLLAPHRPKEPAWFLATVGVSPDHQGKGLGSAVVLPGVEAAERAGVPAFLETSAPRNLPFYERLGFTVTADVEVPEGPRTWCMTRKPGA
modifications: Synthetic Immune Receptor (SIR)

System: target antigen-expressing cell line
Assay: Jurkat NFAT-GFP assay, coculture with target cell lines expressing the respective target antigen (summary Table 10A)
Assay type: cell-based, human
Parameters: key: The signs +/−, +, 2+ etc. after the name of the cell lines indicate the relative degree of positivity on the Jurkat-NFAT-GFP assay as measured by the % GFP positive cells; +: relative degree of positivity on the Jurkat-NFAT-GFP assay as measured by the % GFP positive cells; 2+: relative degree of positivity on the Jurkat-NFAT-GFP assay as measured by the % GFP positive cells
Details: relative % GFP positive cells; for NFAT-GFP ASSAY Positive Cell lines: RAJI: SIR-expressing Jurkat-NFAT-GFP cells cocultured with RAJI
Summary of the method: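 Jurkat cells carrying an NFAT-site IL-2 promoter driving GFP were lentivirally transduced with SIRs, puromycin-selected, then cocultured with antigen-expressing target cells at E:T about 1:2 for about 4–18 hours. GFP induction was read by flow cytometry as % GFP-positive cells versus parental Jurkat-NFAT-GFP.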

Molecule	NFAT-GFP ASSAY Positive Cell lines: NALM6 (SIR-expressing Jurkat-NFAT-GFP cells cocultured with NALM6)	NFAT-GFP ASSAY Positive Cell lines: RAJI	NFAT-GFP ASSAY Positive Cell lines: LAN5 (SIR-expressing Jurkat-NFAT-GFP cells cocultured with LAN5)
B1	RAJI (+), NALM6 (+)	RAJI (+), NALM6 (+)	–
B2	–	RAJI (+)	–
B3	–	RAJI (+)	–
B4	–	–	LAN5 (+)
